Assay: soluble on expression in E. coli; label from the status in PepcDB or PDB records

| Sequence | soluble on expression in E. coli |
| --- | --- |
| MAHHHHHHMTELVPEAEVTFNCGSPSFPYVRVYRCFKTTNSGMLYRLEDDKGRWAFYNDTPLTVFNVYVKFNADSVVTSDTDVALEMTQGEWDYWATTVVLPGHTQRFVEGTISSFLLNFASEGELAKDVTFVNGTPTVGYDRVYRCFKQNANGMLFRLVKVERPGNECVWNFYNDSRELSVEVELTLIEKDSAKPLGDTQVIPPPDGVGVALYKIVVPPLKTVPFLRGHPRFSKQSYVAKSMYDENMLDASEITFENGQPDRAVIDYPRTKVFRGFNNNGNGLAFLLVDPEEKKWAFYNDTTNYNVTATVRFAAGSVYKAAANTRVEVDPAVEGGTVCTITVMPLATELFITEGNPEQYQISLSAECSTGPKPEENPDYQNGQPDTKVMLRWEKVYRCFKNRGNGLLFRLVGDNDRRWGFYNDTTDFIFTVTVSFENGETVKTLGNTSVSEDPELGKVFTLEVAPLSTEVFVFGDLSGYKTRFAARSVRCA | not soluble |
| MAHHHHHHMTILHNPGLPRVLNRITPQRLELTLMLIKERKKKLRYLGSYLQHYNDRTFLYNAMGGLNGTKFIIERHHHRAQYCHPTLHNERYSVRTIKMKGAQFDQVGNFTRNTWDCSVATTNLFQDATFRRHLSAIHKDEAIALLEGWGVKYVLLDEVRKPSVQDSIYVRHNLYIHKFPHIPDPVTNVYHGDADWKWKGDEKIDYTSYGASTKDERNTFQSLWSAAVRESKDSGVAKTVQAGKKL | not soluble |
| MAHHHHHHMTLENKALLCLIKKYEEKNKFLNVVEYIHYVCTNLYSYEENLNYNIMYDEFLKDLKKYLKENILDYKHILENILLKTDINYVNEQNIVNDILSKKKIYDISFEEVKNTTMKSEYSMENIKTSVKTENKDISLNKEECNKDDHVQEDNIDKYNGLEGKNREKNICRNWKDEKSQHEFYQLQSFEKNENREWFRVDPNLNWKEKQQLIYNEIEKLKNEIKKITVHSESTKIIISSMICQSKIFLYELEDNIKDYKILKEKIMNDKYLLKKGDYINEVYNGIIQNQRIKIDNVKKTNKTLLNLYNKKFSNINYIISLNENINNVDFLYLNVLIHNRKETPQPYEQLQNKIPEYTNKEKEIFSNIEKNNDSLNLLDNLIVDITNKIDTNMDITNK | not soluble |
| MAHHHHHHMTNVVECTFKTPPETAKAPDNAIIWNSFQYCDEKGWYSLTNHDEIMLRPTAFSDGRIKFLPQLEKIPEEFESVLCGKYDAKAWGKDDCNIVIEGDKDVHISLPGLQEKINYNHRERFPTFLKNWKIIVGMLNEHITVIRINTETAIIVSINEKSNVTVKCVNFNNGFLCVNPHTNLAIAYGDFALSELKKCELVPNITHEGAEWGFFVHLFKWGHIIIPKDIEIKLPSPGLKLIGKKIDTVAIISLPPNIYIHVKIDGPKCIRKLEYGQDYSITAIKSSESDIDIYLLFDGQLIKYEFSFDTRLNKVGKGRSINYAKLKCTNKSKEVTSFVFQATANSKLLLDSNCPTDNMGHLLCNQTISVFDAETGEYLSHPQGLQLTEVFNTLSYPPEKE | not soluble |
| MAHHHHHHMTVGAAALCEYYGYLPRLVRHTGLLPSTRTSVTSSMAATVLQSSLYEADPSPPVRSGEFELPSTYSLHKPLVYDIAALPPKPVSSLRLVIISDTHERHREMSVPNGDVLVHCGDIQEGLNFVRDVKAMLIDFSAWFTDSALHPHPVKLIIAGNHDKAIAAMSTEDVRRLFAPAVYLCEDSVVVEPAGVRFYGSPRSISNSRWSPNTAFQGKKAWKRFVFASARQDDEAGAVSTASRCSSEQPLRSRLEGATPGGPVDVLVVHQSPDIPRAHHSVSEQPICAYAQQVAPRRVLLCGHLHGAHGMHRLPVPEHVRKSFRIATRGGGGQPEGVVRMDEIPHLPCINAAMMTGRFGQNVLLPPSVVDLEL | not soluble |
| MAHHHHHHMVAPSGRTGRRTTRRRTLHTGAGTTVTQRSARLPSRLRRVSTLKTSRAPSCLSTSARLRLFRRRRTCWRCWSERASPYQSSATTPSSPPETAVCAWCRTALRTSSSRAPPWRYLACPSSPTAACAMPARAMWSLSSTTRTTARFASRPPTAICRTATTAPTSRATARTRKPSRTSTLTPRHASCTAASTARAASASTSTRRTSTSARLAAAGARFPPFMNWRRRTTICPFLSYAPSGSCTWAMQTRTTTCASSRLRGQRR | soluble |

Source: the DeepSol protein solubility set
